What was measured:
OhrR [1] = target: T1, OhrR (Bacillus subtilis, UniProt O34777); test: Biochip detection of LMW biothiols (His6-tag OhrR, HisProbe-HRP, TMB absorbance at 450 nm); type: biochemical; details: same concentration (final 100 μM biothiol), CHP final 5 μM, 10 minutes
T1 construct: made in house
Procedure: A biochip method is for […] using His6-tag of OhrR, rather than by labeling with fluorescence or a DNAzyme, according to a principle that OhrR is detached from dsDNA attached to the surface of a biochip in the presence of LMW biothiols, thereby reducing a detection signal.
150 μL of 5 mg/mL NeutrAvidin® (Thermo Scientific, USA) diluted with a coating buffer (100 mM Na2HPO4, 50 mM citric acid) was put into each well of a transparent 96-well plate, and reacted at 37° C. for 4 to 5 hours, and then an unbound residue was washed with TBS four times. After washing, 300 μL of a Seablock blocking buffer (Thermo Scientific, USA) was put into each well and shaken at room temperature for 2 hours for blocking (process of coating NeutrAvidin-unbound surface to prevent non-specific reaction), followed by re-washing with TBS four times. […]
(§1) 50 μL of one of CHP (final 5 μM) and a LMW biothiol (final 100 μM for each of L-cysteine, homocysteine and GSH) was simultaneously put into each well using the biochip to which biotin-dsDNA and His6-tag OhrR were fixed to the NeutrAvidin-coated plate, reacted at room temperature for 10 minutes, and washed with TBS for 4 times. […] After 5 minutes, 2M sulfuric acid was added to stop the reaction, and absorbance was measured at 450 nm. […]

OhrR [2] = target: T1, OhrR; test: OhrR-biothiol binding by MALDI-TOF MS; parameters: species or system B. subtilis; details: 300 nM OhrR, 3 μM CHP
Procedure: It was confirmed whether it is possible to quantitatively analyze the binding of OhrR and a biothiol using a Matrix-Assisted Laser Desorption Ionization-Time-of-Flight Mass Spectrometry (MALDI-TOF mass spectrometer; MALDI-TOF MS).
1 mL of a 300 nM OhrR-containing buffer (20 mM Tris (pH 8.0), 100 mM NaCl, 5% Glycerol) was mixed with a biothiol (Cys, Hcy or GSH) at each concentration (0, 1, 2, 4, 8, 16, 32, or 64 μM). After 3 μM CHP reacted with each resulting mixture for 2 minutes, 110 μL of 100% TCA was treated to stop the oxidation reaction, and precipitate OhrR. To alkylate the precipitated OhrR, 50 mM iodoacetamide was treated, thereby blocking a cysteine residue of the reduced OhrR. The protein was isolated by sodium dodecyl sulphate-polyacrylamide gel electrophoresis (SDS-PAGE), and then a band corresponding to OhrR was cut out and treated with trypsin (37° C., 12 hours or more), followed by extraction from the gel. 0.5 μL of the extracted peptides were treated with 0.5 μL of a-cyano-4-hydroxycinnamic acid (CHCA) (in 50% acetonitrile, 1% TFA) and dehydrated, and then subjected to MALDI-TOF analysis. The MADI-TOF analysis was performed using a 4700 Proteomics Analyzer instrument (Applied Biosystems).

[3] = target: T2, OhrR (organic hydroperoxide regulator) (Bacillus subtilis, UniProt O34777 SEQ:1-147); test: BLI; 50 uM OhrR, TBS; binding thickness about 4.3 nm, falls to about 1 nm with CHP plus biothiol; CHP or biothiol alone still binds; details: chain copies: 2; label: biotin
T2 sequence: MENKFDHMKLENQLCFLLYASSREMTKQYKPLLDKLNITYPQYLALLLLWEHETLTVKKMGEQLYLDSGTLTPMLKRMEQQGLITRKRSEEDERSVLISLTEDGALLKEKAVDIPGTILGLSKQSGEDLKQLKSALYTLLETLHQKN

His6-OhrR = target: T3, His6-OhrR (Bacillus subtilis, UniProt O34777 SEQ:1-147); test: plate assay on NeutrAvidin, 5 uM OhrR, TBS, HisProbe-HRP readout; signal reduced by CHP plus biothiol; details: tags: His6; chain copies: 2; label: biotin
T3 sequence: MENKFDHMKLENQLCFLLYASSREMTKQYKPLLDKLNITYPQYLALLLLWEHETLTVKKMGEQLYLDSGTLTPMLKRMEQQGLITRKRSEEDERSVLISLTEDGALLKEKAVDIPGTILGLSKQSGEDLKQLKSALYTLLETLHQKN
Procedure: 150 μL of 5 mg/mL NeutrAvidin® (Thermo Scientific, USA) diluted with a coating buffer (100 mM Na₂HPO₄, 50 mM citric acid) was put into each well of a transparent 96-well plate, and reacted at 37° C. for 4 to 5 hours, and then an unbound residue was washed with TBS four times. After washing, 300 μL of a Seablock blocking buffer (Thermo Scientific, USA) was put into each well and shaken at room temperature for 2 hours for blocking (process of coating NeutrAvidin-unbound surface to prevent non-specific reaction), followed by re-washing with TBS four times. 100 μL of a biotin-DNA solution diluted with a TBS buffer to 1 μM was put into each well of the blocking-completed microplate, and reacted at room temperature for 1 hour, followed by washing with TBS four times. […]
as §1

[4] = target: T2, OhrR (organic hydroperoxide regulator); test: FP; 50 nM DNA, 300 nM OhrR; 20 mM Tris pH 8.0, 150 mM NaCl, 5% glycerol; dissociates on CHP plus Cys/Hcy/GSH; details: chain copies: 2; label: 6-FAM
Procedure: The binding activity between OhrR and fluorescence (6FAM, 6-carboxyfluorescein)-labeled OhrR-binding DNA was measured every 10 seconds using an LS55 luminescence spectrometer (PerkinElmer) after dissolution in 3 mL of a buffer at a concentration under the experimental conditions. When OhrR binds to DNA, an anisotropy value (Anis) increases. However, when OhrR is dissociated from DNA, an anisotropy value decreases. In each experiment, three representative biothiols such as cysteine (Cys), homocysteine (Hcy) and glutathione (GSH) were treated at various concentrations (0, 1, 2, 4, 8, 16, 32, and 64 μM). While OhrR was bound to DNA in the presence of only a free biothiol, a real-time dissociation rate of OhrR from DNA was measured by treating a type of representative organic hydroperoxide, that is, cumene hydroperoxide (CHP) (treated at 300 sec).

FLAG-OhrR [5] = target: T4, FLAG-OhrR (Bacillus subtilis, UniProt O34777 SEQ:1-147); test: pulldown; anti-FLAG beads, 2 uM OhrR, 100 nM DNA, TBS; released by CHP plus biothiol; details: tags: FLAG (DYKDDDDK), expressed in E. coli; chain copies: 2; label: 6-FAM
T4 sequence: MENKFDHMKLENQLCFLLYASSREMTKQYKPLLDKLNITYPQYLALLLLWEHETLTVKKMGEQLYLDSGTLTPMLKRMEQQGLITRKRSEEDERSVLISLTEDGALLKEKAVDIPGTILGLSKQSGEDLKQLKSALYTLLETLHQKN
Procedure: First, 30 μL of M2 FLAG affinity beads (Sigma, A2220) were added to respective tubes corresponding to the number of samples, and FLAG-tagged OhrR (2 μM) was bound thereto for 1 hour to reach the total volume of 200 μL (when OhrR is bound to the His6 tag, NTA-Beads can also be used). To remove unbound OhrR, after spin-down, a supernatant was removed, fluorophore or DNAzyme-bound OhrR-binding dsDNA (100 nM, SEQ ID NOs: 1 and 2) was bound to the OhrR-bound beads for 30 minutes. […] Afterward, 200 μL of a supernatant obtained by spin-down was transferred to a 96-well plate, and fluorescence or chemiluminescence was measured. […]
OhrR-binding dsDNA was bound with a fluorescent factor FAM, and 200 μL of the final supernatant was transferred to a 96 well plate, followed by fluorescence measurement using a multi plate reader (Variokan, Thermo Scientific). In the fluorescence measurement, a fluorescent signal value at a 525 nm emission wavelength obtained at an excitation wavelength of 480 nm was obtained, and a fluorescence value of each well was corrected using a well only containing a buffer without a fluorescent factor as a reference value, followed by comparing these values.

FLAG-OhrR [6] = target: T4, FLAG-OhrR; test: pulldown; anti-FLAG beads, 5 uM OhrR, 100 nM DNA, TBS; released by CHP plus cysteine, chemiluminescence readout; details: tags: FLAG (DYKDDDDK), expressed in E. coli; chain copies: 2; label: 5' biotin on complementary strand; 5' single-stranded peroxidase DNAzyme plus T9 linker overhang
Procedure: After unbound dsDNA was removed by spin-down, 160 μL of a buffer (Tris Buffered Saline, TBS)->20 μL of LMW biothiols (by concentration)->20 μL of CHP (500 μM) were sequentially added to each tube, followed by shaking for 5 minutes. Afterward, 200 μL of a supernatant obtained by spin-down was transferred to a 96-well plate, and fluorescence or chemiluminescence was measured. The reducing agent (DTT)-untreated sample may be used for measuring free LMW biothiols, and the reducing agent-treated sample may be used for measuring total LMW biothiols [FIG. 9].
200 μL of the DNAzyme (5′-GG GTT GGG CGG GAT GGG-3′ [SEQ ID NO: 6], synthesized by IDT)-bound OhrR-binding dsDNA was recovered from a supernatant, and 20 μL of a suspension of NeutrAvidin®-coated beads (Thermo Scientific, USA) was added thereto, followed by shaking at room temperature for 30 minutes. Afterward, washing was performed with a TBS (20 mM Tris, 150 mM NaCl, pH 7.4) buffer four times. To induce DNAzyme activity, 180 μL of a TBS buffer was mixed with 20 μL of 1 μM Hemin (Calbiochem, USA) (in TBS) solution to reach the final volume of 200 μL, the beads were precipitated, and then the resulting solution was left at room temperature under a dark condition for 15 minutes or more. […]

N[C@@H](CS)C(=O)O [Cys, cysteine] was tested, and the “absorbance signal reducing effect compared with homocysteine or GSH” value (OhrR [1]) was “higher absorbance signal reducing effect” and the “detection signal level among the measured LMW biothiols” value (OhrR [2]) was “highest detection signal level”.

B1: OhrR operator dsDNA, biotin (dsDNA)
DNA 1: TACAATTAAATTGTATACAATTAAATTGTA
DNA 2: TACAATTTAATTGTATACAATTTAATTGTA
B1: binds [3]; binds (His6-OhrR).

B2: OhrR operator dsDNA, 6FAM (dsDNA)
DNA 1: TACAATTAAATTGTATACAATTAAATTGTA
DNA 2: TACAATTTAATTGTATACAATTTAATTGTA
B2: binds [4]; binds (FLAG-OhrR [5]).

B3: DNAzyme-linked OhrR operator dsDNA probe (dsDNA)
DNA 1: GGGTTGGGCGGGATGGGTTTTTTTTTTACAATTAAATTGTATACAATTAAATTGTA
DNA 2: TACAATTTAATTGTATACAATTTAATTGTA
B3: binds (FLAG-OhrR [6]).

Source: patent US20190331690A1, “BIOTHIOL DETECTION COMPOSITION COMPRISING REDOX REGULATION PROTENIN” (INDUSTRY-UNIVERSITY COOPERATION FOUNDATION HANYANG …, priority 2016, published 2019)
